This is an account of results in paper PMC11253607, “A conserved inhibitory interdomain interaction regulates DNA-binding activities of hybrid two-component systems in Bacteroides” (mBio, 2024).

Data set [1] concerns the target T1, BT4663-RRAG C1174A;H1175G (Bacteroides thetaiotaomicron VPI 5482) (UniProt Q89YR8).
T1 sequence: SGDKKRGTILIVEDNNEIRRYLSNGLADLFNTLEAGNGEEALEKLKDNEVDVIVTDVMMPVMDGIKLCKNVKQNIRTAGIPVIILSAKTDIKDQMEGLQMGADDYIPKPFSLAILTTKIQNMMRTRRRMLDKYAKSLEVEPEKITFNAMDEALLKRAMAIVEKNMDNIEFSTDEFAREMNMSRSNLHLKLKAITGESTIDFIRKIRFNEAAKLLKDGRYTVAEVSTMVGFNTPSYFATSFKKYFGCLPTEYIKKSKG
In words: EMSA. The settings on record: 50 mM Tris pH 7.6, 200 mM NaCl, 2.5% glycerol, 2 mM MgCl2, 0.5 mM DTT, 0.1 ug/uL BSA, 10 ng/uL salmon sperm DNA, ~2.5 ng/uL DNA; 30 min, temperature not …. (In general: In EMSA bound probe runs differently from free probe, usually more slowly.)

Data set [2] addresses T2, BT4663-RRAD C1174A;H1175D (Bacteroides thetaiotaomicron VPI 5482) (UniProt Q89YR8).
T2 sequence: T1 sequence with G79D
In words: EMSA. The settings on record: 50 mM Tris pH 7.6, 200 mM NaCl, 2.5% glycerol, 2 mM MgCl2, 0.5 mM DTT, 0.1 ug/uL BSA, 10 ng/uL salmon sperm DNA, ~2.5 ng/uL DNA; 30 min, temperature not ….

Changes are numbered by the printed parent chain.

As to “GATGGTAGTGTGGGGTCTCATGCCTAGGATACAGGAGATAAACAGCTTTTTTAAACAAAAACAACATATGTCTCAACAAATTTGATATCAAAAAAATCATTTTTGAACAAAGTATGAACAACCTAAATTAAAGAATCTAATTAATGAGGTTACATTTGCAACAGTAAAATAACACTTTTAATAATTATAAAACCTAATAAAGTATGAAGAACGAGACCGAAATTCAATAAGGAGG (double strand) [bt4662 promoter fragment]”, the Kd in data set [1] and in data set [2] was 900 nM throughout.
